Here are results for 2 substances from publication PMC3531269.

For experiment [1], the target named is N-peptide N36 (aa 546-581 of HIV-1 HXB2 gp41 NHR) (HIV-1 HXB2) (UniProt P04578). In words: ELISA. (In general: ELISA stands for enzyme-linked immunosorbent assay.)
The target of experiment [2] is HIV-1 HXB2 Env (gp120/gp41) expressed on the surface of CHO-WT cells (HIV-1 HXB2) (UniProt P04578).

One may read the IC50 as the concentration that gives 50% inhibition. The substance “2DLT (bivalent recombinant protein: D1D2 domain of CD4 linked to T1144 by a 35-mer linker) (designed binder)” registered an IC50 in experiment [1] of 500 nM. Moreover, in experiment [2], the IC50 of HIV-1 replication, Bal (B, R5) turned out to be 10.8 nM; the IC50 of HIV-1 replication, IIIB (B, X4) is 5.64 nM; the IC50 of HIV-1 replication, primary isolate 92TH009 (E/A, R5) came out at 17.5 nM; the IC50 of HIV-1 replication, primary isolate 92US657 (B, R5) was found to be 17.2 nM. In experiment [2], this substance came in with an IC50 of HIV-1 replication, primary isolate 93 MW959 (C, R5) of 18.9 nM; an IC90 of HIV-1 replication, Bal (B, R5) of 44.4 nM; an IC90 of HIV-1 replication, IIIB (B, X4) of 28.8 nM; an IC90 of HIV-1 replication, primary isolate 92TH009 (E/A, R5) of 71.9 nM. Further, in experiment [2], the IC90 of HIV-1 replication, primary isolate 92US657 (B, R5) was 51.9 nM and the IC90 of HIV-1 replication, primary isolate 93 MW959 (C, R5) was determined as 48.9 nM.
In experiment [2], “T1144 (C-peptide, next generation HIV fusion inhibitor)” had an IC50 of HIV-1 replication, Bal (B, R5) of 4.03 nM; an IC50 of HIV-1 replication, IIIB (B, X4) of 2.13 nM; an IC50 of HIV-1 replication, primary isolate 92TH009 (E/A, R5) of 1.36 nM; an IC50 of HIV-1 replication, primary isolate 92US657 (B, R5) of 13.2 nM. Further, in experiment [2], the IC50 of HIV-1 replication, primary isolate 93 MW959 (C, R5) worked out at 2.35 nM; the IC90 of HIV-1 replication, Bal (B, R5) came to 28.1 nM; the IC90 of HIV-1 replication, IIIB (B, X4) came to 35.2 nM; the IC90 of HIV-1 replication, primary isolate 92TH009 (E/A, R5) turned out to be 6.21 nM. In experiment [2], this substance gave an IC90 of HIV-1 replication, primary isolate 92US657 (B, R5) of 42.3 nM and an IC90 of HIV-1 replication, primary isolate 93 MW959 (C, R5) of 16.2 nM.
